Test results taken from article PMC10113271 (2023).
Where no end group is shown, it is not given here. The star is where a group is joined. FITC = O=C1OC2(c3ccc(O)cc3Oc3cc(O)ccc32)c2ccc(NC(=S)*)cc21; βAla = NCCC(=O)O

Target: KIX domain of CREB-binding protein (residues 586–672 of mouse CBP) (mouse, UniProt P45481 586-672)
Assay: FP

Sequence of KIX domain of CREB-binding protein (residues 586–672 of mouse CBP) (P45481 586-672): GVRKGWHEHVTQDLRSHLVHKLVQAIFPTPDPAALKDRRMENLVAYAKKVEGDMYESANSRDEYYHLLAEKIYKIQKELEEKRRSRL

B1: FITC-labeled c-Myb TAD peptide (peptide)
peptide: {FITC-βAla}-GYNDEDPEKEKRIKELELLLMSTENELKGQQAL
B1 gave a Kd of 59 nM.
